Results from paper doi:10.1101/2023.12.22.573000.

Molecular target: T1, RIG-I (recombinant) (human? (GeneID 23586), UniProt O95786 1-925)
T1 sequence: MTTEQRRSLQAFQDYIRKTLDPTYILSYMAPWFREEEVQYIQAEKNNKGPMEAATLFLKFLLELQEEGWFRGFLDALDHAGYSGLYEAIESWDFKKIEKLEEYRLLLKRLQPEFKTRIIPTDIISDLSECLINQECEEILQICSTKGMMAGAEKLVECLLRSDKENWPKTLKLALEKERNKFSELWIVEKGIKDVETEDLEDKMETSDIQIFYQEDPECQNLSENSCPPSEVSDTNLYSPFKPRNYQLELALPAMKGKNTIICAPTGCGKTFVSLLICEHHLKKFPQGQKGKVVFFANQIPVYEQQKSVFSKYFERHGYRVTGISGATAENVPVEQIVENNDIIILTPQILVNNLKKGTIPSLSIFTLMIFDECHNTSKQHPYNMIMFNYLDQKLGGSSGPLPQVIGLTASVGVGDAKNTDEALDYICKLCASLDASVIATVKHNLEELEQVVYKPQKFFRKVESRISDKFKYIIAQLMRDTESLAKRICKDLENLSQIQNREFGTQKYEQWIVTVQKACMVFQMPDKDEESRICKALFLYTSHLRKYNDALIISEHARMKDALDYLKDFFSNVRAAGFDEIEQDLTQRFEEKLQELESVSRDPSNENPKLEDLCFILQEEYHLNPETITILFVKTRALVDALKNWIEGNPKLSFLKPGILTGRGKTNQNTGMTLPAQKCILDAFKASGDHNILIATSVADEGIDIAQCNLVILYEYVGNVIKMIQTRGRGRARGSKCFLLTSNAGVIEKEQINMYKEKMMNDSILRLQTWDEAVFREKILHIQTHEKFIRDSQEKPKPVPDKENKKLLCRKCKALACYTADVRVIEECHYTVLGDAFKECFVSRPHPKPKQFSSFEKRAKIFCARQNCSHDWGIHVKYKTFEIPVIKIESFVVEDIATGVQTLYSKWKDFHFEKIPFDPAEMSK
Experiment: EMSA

B1: 5'-pppA synthetic 24 bp dsRNA (dsRNA)
RNA 1: AGCAAAAGCAGGGUGACAAAGACA
RNA 2: UGUCUUUGUCACCCUGCUUUUGCU
modifications: 5'-ppp on sense strand only
B1 was tested. Which Kd did it give?
Its Kd is 0.4 nM.
